Reference: paper PMC6297355, “Myopathy associated BAG3 mutations lead to protein aggregation by stalling Hsp70 networks” (Nature Communications, 2018)

B1: BAG3^P209L (recombinant) (natural protein)
chain: not shown
notes: BAG3, human, disease mutation P209L in the second IPV motif; Forms soluble higher order oligomers by SEC-MALS; source: E. coli BL21(DE3), purified (Ni-NTA, TEV cleavage, MonoQ)
B2: BAG3^P209W (recombinant) (natural protein)
chain: not shown
notes: BAG3, human, P209W; source: E. coli BL21(DE3), purified (Ni-NTA, TEV cleavage, MonoQ)
B3: BAG3^P209I (recombinant) (natural protein)
chain: not shown
notes: BAG3, human, P209I; source: E. coli BL21(DE3), purified (Ni-NTA, TEV cleavage, MonoQ)

Biological target: the molecule itself
Assay: SEC-MALS; 30 µM BAG3 solutions separated on Shodex 804, in-line DAWN HELEOS and Optilab rEX detectors

Binding result, binds:
B1, B2, B3
